Test [1] has as its target p53 (Santa Cruz sc-4246) (UniProt P04637). The experiment in a line: UV-Visible spectroscopy of antibody-coated gold nanorods in solution, resonance shift vs. concentration, Langmuir fit.
Test [2] has the same target. The experiment in a line: LSPR fiber tip probe, antibody on gold nanorod, 1 nM p53 in PBS.
The target is the same in test [3]. Briefly: LSPR fiber tip probe, shift vs. concentration, Langmuir fit.
Test [4] has the same target. Briefly: LSPR fiber tip probe, shift vs. concentration, Langmuir fit (FIG. 3B).
For test [5] the target is unchanged. The experiment in a line: LSPR fiber tip probe, second of three devices, Langmuir fit.
For test [6] the target is unchanged. The experiment in a line: LSPR fiber tip probe, first of three devices, Langmuir fit.
For test [7] the target is unchanged. Briefly: LSPR fiber tip probe, third of three devices, Langmuir fit.
The target is the same in test [8]. Briefly: LSPR fiber tip probe, antibody on gold nanorod, 18.92 nM p53 in PBS.

Sequence of UniProt P04637 (P04637 whole entry): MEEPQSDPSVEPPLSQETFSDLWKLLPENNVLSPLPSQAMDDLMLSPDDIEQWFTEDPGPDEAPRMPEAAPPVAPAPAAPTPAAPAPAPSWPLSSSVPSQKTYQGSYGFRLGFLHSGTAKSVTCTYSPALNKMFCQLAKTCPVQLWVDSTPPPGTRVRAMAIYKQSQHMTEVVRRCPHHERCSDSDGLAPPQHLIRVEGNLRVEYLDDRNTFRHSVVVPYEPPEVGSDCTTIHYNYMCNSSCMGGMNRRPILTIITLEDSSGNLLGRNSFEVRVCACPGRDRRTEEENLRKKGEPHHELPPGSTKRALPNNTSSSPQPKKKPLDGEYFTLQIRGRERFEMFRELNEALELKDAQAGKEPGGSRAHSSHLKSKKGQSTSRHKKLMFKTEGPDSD

One may read the Kd as the constant that tells how readily two partners part at equilibrium. On to p53 antibody (Santa Cruz sc-126), for which the Kd with p53 (Santa Cruz sc-4246) [1] stood at 4.3 nM; in the test with p53 (Santa Cruz sc-4246) [3] it was 5.5 nM; with p53 (Santa Cruz sc-4246) [4] it was 5.4 nM; with p53 (Santa Cruz sc-4246) [5], 4.2 nM; with p53 (Santa Cruz sc-4246) [6], 5.5 nM; in the test with p53 (Santa Cruz sc-4246) [7], 7.1 nM. Further, the figures for the LSPR shift with p53 (Santa Cruz sc-4246) [2] and with p53 (Santa Cruz sc-4246) [8] were 0.55 nm and 5.13 nm, respectively.
